Test results: publication PMC10953500

Legend:
[1] = molecular target: recombinant CD89 (Fc-alpha receptor, FcαRI) with C-terminal His-tag (UniProt P24071); assay: SPR
[2] = molecular target: receptor binding domain (RBD) of the SARS-CoV-2 spike protein with C-terminal 6xHis-tag (SARS-CoV-2) (UniProt P0DTC2); assay: SPR

recombinant CD89 (Fc-alpha receptor, FcαRI) with C-terminal His-tag, sequence (P24071 22-227): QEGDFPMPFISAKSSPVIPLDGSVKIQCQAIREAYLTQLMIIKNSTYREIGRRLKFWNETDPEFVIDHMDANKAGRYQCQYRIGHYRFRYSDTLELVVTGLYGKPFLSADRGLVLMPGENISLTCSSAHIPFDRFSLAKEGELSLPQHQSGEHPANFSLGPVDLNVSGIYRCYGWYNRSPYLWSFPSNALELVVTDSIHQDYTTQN
COVA2-15 IgA1 produced in N. benthamiana wildtype ("WT"), sequence (P01876 whole entry, looked up, tested part not stated): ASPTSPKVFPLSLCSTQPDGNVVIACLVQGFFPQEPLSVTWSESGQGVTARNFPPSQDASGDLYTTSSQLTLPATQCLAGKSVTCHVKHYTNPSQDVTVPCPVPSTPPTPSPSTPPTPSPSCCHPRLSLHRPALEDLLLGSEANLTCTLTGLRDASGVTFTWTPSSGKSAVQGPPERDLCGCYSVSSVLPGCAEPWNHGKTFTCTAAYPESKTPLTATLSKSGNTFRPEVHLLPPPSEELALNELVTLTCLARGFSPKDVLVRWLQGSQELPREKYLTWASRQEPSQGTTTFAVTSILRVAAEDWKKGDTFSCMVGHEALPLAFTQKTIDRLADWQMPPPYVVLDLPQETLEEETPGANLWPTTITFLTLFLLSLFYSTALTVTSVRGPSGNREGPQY
COVA2-15 IgA1 produced in the H10-KO line co-infiltrated with GalNAc-T2 and C1GalT1 ("H10+O"), sequence (P01876 whole entry, looked up, tested part not stated): as above
COVA2-15 IgA1 produced in the NbP4H10 knockout line pB109-1C ("H10-KO"), sequence (P01876 whole entry, looked up): as the sequence (P01876 whole entry, looked up, tested part not stated) above
COVA2-15 IgA1 produced in HEK293-6E cells ("HEK"), sequence (P01876 whole entry, looked up, tested part not stated): as above

Substance	Kd [1]	Kd [2]
COVA2-15 IgA1 produced in HEK293-6E cells ("HEK") (from UniProt P01876)	36.7 nM	0.85 nM
COVA2-15 IgA1 produced in N. benthamiana wildtype ("WT") (from UniProt P01876)	66.6 nM	1.53 nM
COVA2-15 IgA1 produced in the H10-KO line co-infiltrated with GalNAc-T2 and C1GalT1 ("H10+O") (from UniProt P01876)	31.7 nM	1.25 nM
COVA2-15 IgA1 produced in the NbP4H10 knockout line pB109-1C ("H10-KO") (from UniProt P01876)	61.3 nM	1.31 nM
